Experiment [1] addresses T1, HER2 full-length extracellular domain (ECD), recombinant (human, UniProt P04626 23-652).
T1 construct: extracellular domain; also called full length ECD; HER2 full-length ECD
The experiment can be described thus: ELISA, coated HER2 ECD, antibody at 10 µg/ml. The procedure: (§1) Recombinant Her2 domains (full length ECD purchased from Biozol, ECD domains produced at Mab Discovery), were coated on a 384-well Nunc™ MaxiSorp™ plate at optimized concentrations ([…]) in PBS for one hour at room temperature. After washing three times with wash buffer (PBS, 0.1% Tween), plates were blocked with PBS, 2% BSA, 0.05% Tween for one hour at room temperature. Plates were washed again three time with wash buffer and antibodies at a concentration of 10 μg/ml in PBS, 0.5% BSA, 0.05% Tween were incubated for one hour at room temperature. After 3 washes in wash buffer, wells were incubated with 12.5 μl of a 1:5000 dilution of anti-human peroxidase-linked, species specific F(ab)2 Fragment from goat (AbD Serotec) in ELISA buffer for one hour at room temperature. Wells were washed six times with wash buffer and 15 μl/well TMB substrate solution (Invitrogen) were added. After 10 minutes at room temperature 15 μl Stop solution (1M HCl) were added per well and absorbance at 450 and 620 nm wavelength was measured using a Tecan M1000 microplate reader.
In general terms: In an ELISA, binding on a coated surface is turned into a signal by an enzyme label.

The target in experiment [2] is T2, HER2 sub-domain I, recombinant (human, UniProt P04626 23-217, limits assumed).
T2 construct: domain: sub-domain I; also called HER2 domain I
The experiment in a line: ELISA, coated HER2 domain. As for the experimental part:
as §1

B1: B100 anti-HER2 monoclonal antibody (antibody, V domains shown)
VH: QSVEESGGRLVTPGTPLTLTCTVSGFSLSNYGVSWVRQAPGKGLEYIGIISGSGFTYYASWAKGRFTISKTSTTVDLKITSPTTKDTATYFCARGVVPGYNAGGLWGQGTLVTVSS
VL: DIVMTQTPASVSEPVGGTVTIKCQASQGISTALAWYQQKPGQRPKLLIYSASTLASGVSSRFKGSGSGTQFTLTISDLECADAATYYCQCTAAGSVSVGAFGGGTEVVVN
notes: It was detected in the ELISA with an anti-human F(ab)2 conjugate; also called B100 antibody
Take B1: the binding result was “binds” in experiment [1] and “no binding (tested: 10 µg/ml)” in experiment [2].

Values taken from patent publication US20220204644A1 (MAB DISCOVERY, published 2022).
